Assay results from publication PMC13079258, “Impact of Ser81 phosphorylation on alanine: glyoxylate aminotransferase associated with Primary hyperoxaluria type I” (Molecular Biomedicine, 2026).
Residue numbers refer to the chain shown, from its start. Numbers in names are those of the source.

T1: AGT (alanine:glyoxylate aminotransferase 1), AGT WT (Homo sapiens, UniProt P21549)
T1 construct: gene AGXT; apo-form prepared with L-alanine; dimer
T1 sequence (P21549 1-392): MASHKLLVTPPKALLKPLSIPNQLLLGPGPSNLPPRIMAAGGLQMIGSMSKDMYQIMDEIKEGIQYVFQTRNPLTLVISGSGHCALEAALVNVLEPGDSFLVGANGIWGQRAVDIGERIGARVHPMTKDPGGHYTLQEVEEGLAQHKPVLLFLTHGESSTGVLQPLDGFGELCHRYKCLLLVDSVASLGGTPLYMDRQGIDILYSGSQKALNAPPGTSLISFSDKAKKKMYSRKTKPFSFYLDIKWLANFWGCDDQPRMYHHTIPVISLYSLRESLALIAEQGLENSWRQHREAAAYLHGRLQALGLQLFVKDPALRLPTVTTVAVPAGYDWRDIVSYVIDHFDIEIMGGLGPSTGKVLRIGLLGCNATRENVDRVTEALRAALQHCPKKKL

B1: Alanine:glyoxylate aminotransferase (AGT) WT (enzyme, human, UniProt P21549 1-392, looked up)
chain: T1 sequence (P21549 1-392)
notes: also called wild-type; major allele
B2: AGT LM-p.I244T (enzyme, human, UniProt P21549 1-392, looked up)
chain: T1 sequence (P21549 1-392) with P11L, I244T, I340M
notes: Alanine:glyoxylate aminotransferase (AGT), human, minor allele (LM) with the PH1-associated variant p.I244T; also called set S81
B3: AGT LM-p.G170R (enzyme, human, UniProt P21549 1-392, looked up)
chain: T1 sequence (P21549 1-392) with P11L, G170R, I340M
notes: Alanine:glyoxylate aminotransferase (AGT), human, minor allele (LM) with the PH1-associated variant p.G170R; also called set S81
B4: AGT LM p.S81D (enzyme, human, UniProt P21549 1-392, looked up)
chain: T1 sequence (P21549 1-392) with P11L, S81D, I340M
notes: Alanine:glyoxylate aminotransferase (AGT), human, minor allele (LM) background with the phosphomimetic S81D; site-directed mutant of the pCOLDII construct of m2; also called set D81
B5: AGT WT p.S81A (enzyme, human, UniProt P21549 1-392, looked up)
chain: T1 sequence (P21549 1-392) with S81A
notes: Alanine:glyoxylate aminotransferase (AGT), human, wild-type background with S81A; site-directed mutant of the pCOLDII construct of m1; also called set A81
B6: AGT LM-p.G170R p.S81D (enzyme, human, UniProt P21549 1-392, looked up)
chain: T1 sequence (P21549 1-392) with P11L, S81D, G170R, I340M
notes: Alanine:glyoxylate aminotransferase (AGT), human, LM-p.G170R background with the phosphomimetic S81D; site-directed mutant of the pCOLDII construct of m3; also called set D81
B7: AGT LM (minor allele, p.P11L and p.I340M) (enzyme, human, UniProt P21549 1-392, looked up)
chain: T1 sequence (P21549 1-392) with P11L, I340M
notes: Alanine:glyoxylate aminotransferase (AGT), human, common polymorphic minor allele (LM); also called set S81
B8: AGT LM-p.G170R p.S81A (enzyme, human, UniProt P21549 1-392, looked up)
chain: T1 sequence (P21549 1-392) with P11L, S81A, G170R, I340M
notes: Alanine:glyoxylate aminotransferase (AGT), human, LM-p.G170R background with S81A; site-directed mutant of the pCOLDII construct of m3; also called set A81
B9: AGT LM-p.I244T p.S81D (enzyme, human, UniProt P21549 1-392, looked up)
chain: T1 sequence (P21549 1-392) with P11L, S81D, I244T, I340M
notes: Alanine:glyoxylate aminotransferase (AGT), human, LM-p.I244T background with the phosphomimetic S81D; site-directed mutant of the pCOLDII construct of m4; also called set D81
B10: AGT LM-p.I244T p.S81A (enzyme, human, UniProt P21549 1-392, looked up)
chain: T1 sequence (P21549 1-392) with P11L, S81A, I244T, I340M
notes: Alanine:glyoxylate aminotransferase (AGT), human, LM-p.I244T background with S81A; site-directed mutant of the pCOLDII construct of m4; also called set A81
B11: AGT WT p.S81D (enzyme, human, UniProt P21549 1-392, looked up)
chain: T1 sequence (P21549 1-392) with S81D
notes: Alanine:glyoxylate aminotransferase (AGT), human, wild-type background with the phosphomimetic S81D; site-directed mutant of the pCOLDII construct of m1; also called set D81
B12: AGT LM p.S81A (enzyme, human, UniProt P21549 1-392, looked up)
chain: T1 sequence (P21549 1-392) with P11L, S81A, I340M
notes: Alanine:glyoxylate aminotransferase (AGT), human, minor allele (LM) background with S81A; site-directed mutant of the pCOLDII construct of m2; also called set A81

What was measured:
[1] = target: T1, AGT (alanine:glyoxylate aminotransferase 1), AGT WT; test: absorption and near-UV/visible CD after L-alanine; 30-kDa filtration for released PMP; type: biochemical; settings: 20 uM holo-AGT, 200 mM L-alanine, 25 C, HEPES 20 mM, NaCl 200 mM, pH 7.4
[2] = target: the molecule itself; test: dynamic light scattering; 10 µM AGT as purified, 25 °C, 20 mM HEPES (sodium salt), 200 mM NaCl, pH 7.4; hydrodynamic radius assuming spherical particles (Stokes-Einstein)

Molecule | absorption and near-UV/visible CD after L-alanine; 30-kDa filtration for release [1] | stoichiometry N [2]
Cc1ncc(COP(=O)(O)O)c(CN)c1O [PMP] | the CD signal associated with PMP formation, clearly present in S81 and A81 sets | –
B1 | – | 2
B2 | – | 2
B3 | – | 2
B4 | – | 2
B5 | – | 2
B6 | – | 2
B7 | – | 2
B8 | – | 2
B9 | – | 2
B10 | – | 2
B11 | – | 2
B12 | – | 2
